Laboratory results published in US20240018513A1, “SYNTHETIC INTRONS FOR TARGETED GENE EXPRESSION” (FRED HUTCHINSON CANCER CENTER, priority 2020, published 2024).

Assays:
Format in all cases: cell-based
[1] = system: isogenic WT or SF3B1-mutant K562 cells; test: Fluorescent reporter (mEmerald interrupted by synthetic intron, mCardinal control), flow cytometry
Source text: These six endogenous introns served as starting points for the development of synthetic introns that functioned as compact and modular molecular switches. […] These choices were guided by the increased complexity of the 3′ss versus 5′ss, SF3B1's functional role in 3′ss recognition, and the importance of exon length in splicing. Each split mEmerald sequence was cloned into a vector with constitutive expression of the non-overlapping fluorophore mCardinal (FIG. 1E). The resulting vectors permitted quantitative assessment of mutation-dependent protein production by measuring the ratio of mEmerald to mCardinal in cells with or without an SF3B1 mutation via flow cytometry.
Each construct was transfected into isogenic WT or SF3B1-mutant K562 cells and mutation-dependent splicing and protein production was measured. […] Mutation-dependent protein production arose from mutation-dependent splicing changes, as designed (FIGS. 6G and 6H). These proof-of-principle studies confirmed the feasibility of using synthetic introns for mutation-dependent gene expression. […]

WT K562 cells = test: Mini-screen: pooled synthetic intron mini-library in HSV-TK, GCV treatment, full-length intron sequencing from genomic DNA; details: genotype WT (SF3B1+/+) K562; GCV 100 ug/mL; day 6; vector hPGK-PuroR-P2A-HSV-TK
Source text: (§1) Therefore, a massively parallel splicing assay was developed to map and functionally interrogate key sequence features within the synthetic intron. First, a pilot mini-library of eight synthetic introns was synthesized, seven of which were much shorter (lengths of 100-158 nt) than the parent synthetic intron (synMTERFD3i1-250), and each with one or more perturbations to potentially critical features (FIG. 2E). This mini-library was cloned into HSV-TK, introduced into WT or SF3B1-mutant K562 cells with a lentiviral vector at a low multiplicity of infection, and treated with GCV. Relative depletion of each construct was measured by high-throughput sequencing of the entire introns from genomic DNA after six days of treatment (TABLE 1).
(§2) Each synthetic intron used in the mini-library was ordered individually as a gBlock (Integrated DNA Technologies), consisting of the desired intron flanked by homology arms for cloning (5′ arm: […] (SEQ ID NO:158); 3′ arm: […] (SEQ ID NO:159; TABLE 3). The gBlocks were then mixed in equal proportions before being cloned into hPGK-PuroR-P2A-HSV-TK using a previously published strategy for pooled cloning (Thomas, J. D. et al. RNA isoform screens uncover the essentiality and tumor-suppressor activity of ultraconserved poison exons. Nature genetics 52, 84-94 (2020), incorporated herein by reference in its entirety). This intron mix was then amplified using NEBNext High Fidelity Ready Mix (New England Biolabs) and purified using 1.8×AMPure XP SPRI beads (Beckman Coulter). The backbone for the library was amplified using Q5 polymerase (New England Biolabs). The library was transformed and amplified using Endura ElectroCompetent Cells (Lucigen, 60242-2) and large LB plates. The library was maxiprepped using a Macherey-Nagel MaxiPrep kit (Thermo Fisher Scientific, Cat 740414.10).
(§3) WT or SF3B1-mutant K562 cells were infected with lentivirus encoding the mini-library at an MOI of 0.3 and untreated or treated with GCV (100 ug/mL) for 6 days. Genomic DNA was collected at day 6 and the resulting Illumina libraries were sequenced with 2×150 bp reads (Illumina MiSeq). Depletion/enrichment of each construct was estimated as follows. For each sample, reads were normalized to the total reads mapped. The relative fraction of reads mapping to each intron was then estimated by dividing the numbers of normalized reads mapped to an intron by the total reads mapped in the sample. The standard deviation was calculated using the sample proportion P for each intron (σ=sqrt [P(1−P)/n]). A fold-change was calculated for each intron by dividing the proportion of the intron in the treated GCV samples by the fraction of the intron in the untreated samples. Error propagation was used to estimate the standard deviation. The final relative fold-changes were computed by normalizing fold-changes such that the fold-change of synMTERFD3i1-250 in the pilot screen was identical to the experimentally measured fold-change in a single-construct experiment (FIG. 2C, 100 μg/mL of GCV).

SF3B1-mutant K562 cells = test: as above
Source text: as §1, §2, §3

[2] = system: isogenic WT or SF3B1-mutant K562 cells; test: Single-construct cell viability (CellTiter-Glo, ATP) of cells expressing HSV-TK with synthetic intron, GCV treatment; details: 0-100 μg/mL GCV, 3 days
Source text: This split HSV-TK sequence or an intronless HSV-TK was cloned into a lentiviral expression vector. Isogenic WT or SF3B1-mutant K562 cells were infected. Positive integrants were selected and treated with GCV (FIG. 2B).
Stable cell lines were made by transducing K562 or MCF10A cells with lentivirus at multiplicities of infection (MOIs) of 1 (FIGS. 2C, 2G, and 2H), 0.3 (mini-library), and 0.1 (full library). Positive integrants were selected by treating with puromycin (hPGK-PuroR-P2A-HSV-TK) or flow sorting for mCherry (hPGK-HSV-TK-P2A-mCherry).
Cell viability was measured for single-construct experiments in cell culture by the CellTiter-Glo Luminescent Cell Viability Assay (Promega). For FIG. 2C, K562 cells expressing HSV-TK with the indicated synthetic introns were seeded at a density of 10,000 cells/100 μL/well in a 96-well plate in biological triplicate, and then treated with 0-100 μg/mL GCV or untreated (negative control). Viability measured after 3 days of treatment. For FIG. 2G, K562 cells expressing HSV-TK with the indicated synthetic introns were seeded at a density of 5,000 cells/100 μL/well in 96-well plate in biological triplicate, and then treated with 100 μg/mL GCV or PBS (negative control). Viability was measured after 11 days of treatment.

B1: intron_control: 250 nt parent synthetic intron from MTERFD3 intron 1 (first 100 and last 150 nt); SEQ ID NO 63/71 (nucleic acid)
DNA 1: GTGAGTCGCCCCCTTCCTCTGCTCCTGGGCGTGTTCCTCACCAGCGGCGCCGCAGCGGTCAGGGCCCGCAAAACCCCACGCCTCGCCAGACGCTCAGCTCCAGGAAGCAAATGCAGCTGGTGCAGGAGAGGGAAATGGGAATTAGGGTGGTGGCAGAGCCCAAAGAGGCCTTGTAGGCCATGGTAAGGCATTTCTATGTTTTATTTTACTTTGTCTTTATCCTAAAATGCCATTGGCAAGTTTATTGCAG
DNA 2: B1 DNA 1
mutation-dependent specificity [1]: 2 fold | fold-change (estimated fold-change in intron abundance in gDNA) (WT K562 cells): 0.96 | depletion / mutation responsiveness in mini-screen (SF3B1-mutant K562 cells; SF3B1-mutant vs WT K562, GCV, six days): markedly depleted in SF3B1-mutant, but not WT, cells | fold-change (estimated fold-change in intron abundance in gDNA) (SF3B1-mutant K562 cells; genotype K700E (SF3B1+/K700E) K562, GCV 100 ug/mL, day 6, vector hPGK-PuroR-P2A-HSV-TK): 0.23 | viability upon GCV treatment ([2]; SF3B1-mutant K562 cells): a rapid and dose-dependent loss of viability, indistinguishable to that caused by intronless HSV-TK | viability upon GCV treatment ([2]; WT K562 cells): no significant differences in viability from untransduced cells
